Biological target: Cryptosporidium parvum pyruvate kinase (Cryptosporidium parvum)
Assay: SEC; analytical Superdex 200 10/30, partially purified CpPyK, elution compared with catalase (Mr 232 kDa) run separately; fractions checked by SDS-PAGE

- stoichiometry N: 4
Substance: Cryptosporidium parvum pyruvate kinase (enzyme)

— publication PMC3467265
